Measurements: publication PMC4766470

Legend:
[1] = target: NTR1-Y06, expressed in Sf9 insect cells (rat) (UniProt P20789); test: radioligand binding; saturation binding; diluted Sf9 membranes with [3H]-labelled ligand at 30-0.02 nM, 4 °C, 2 h, 50 mM Tris-HCl pH 7.4, 1 mM EDTA, 0.1% BSA; nonspecific binding with 1000-fold excess of unlabelled ligand; filtration; apparent constants
[2] = target: neurotensin receptor 1 (wild type), expressed in Sf9 insect cells (rat) (UniProt P20789); test: as above

- Kd [1]: 3 nM
- Kd [2]: 3 nM
Substance: [3,11-tyrosyl-3,5-3H(N)]-neurotensin (peptide)
